Measured values reported in article PMC11574045, “A cofactor-induced repressive type of transcription factor condensation can be induced by synthetic peptides to suppress tumorigenesis” (The EMBO Journal, 2024).

Tested on: HEK293FT cells transfected with TF library
Assay: Screening of TF condensates based on fluorescent puncta
Format: cell-based
Conditions: Figure 1B numerical data; TF library screen, one value per transcriptional factor
Procedure, shortened: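 TF plasmids (final 1.6 μg/ml) reverse-transfected with PEI (4.8 μg/ml) into HEK293FT cells; after 60 h, cells cultured ±glucose for 12 h, fixed in 4% PFA and immunostained for Flag or GAL4 tags with Alexa 488 secondaries. Puncta scored by automated imaging of 50 random fields per well.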

B1: RFXDC1 (protein, UniProt Q8HWS3 1-928, looked up)
DNA-binding protein RFX6: MAKVPELEDTFLQAQPAPQLSPGIQEDCCVQLLGKGLLVYPEETVYLAAEGQPGGEQGGGEKGEDPELPGAVKSEMHLNNGNFSSEEEDADNHDSKTKAADQYLSQKKTITQIVKDKKKQTQLTLQWLEENYIVCEGVCLPRCILYAHYLDFCRKEKLEPACAATFGKTIRQKFPLLTTRRLGTRGHSKYHYYGIGIKESSAYYHSVYSGKGLTRFSGSKLKNEGGFTRKYSLSSKTGTLLPEFPSAQHLVYQGCISKDKVDTLIMMYKTHCQCILDNAINGNFEEIQHFLLHFWQGMPDHLLPLLENPVIIDIFCVCDSILYKVLTDVLIPATMQEMPESLLADIRNFAKNWEQWVVSSLENLPEALTDKKIPIVRRFVSSLKRQTSFLHLAQIARPALFDQHVVNSMVSDIERVDLNSIGSQALLTISGSTDTESGIYTEHDSITVFQELKDLLKKNATVEAFIEWLDTVVEQRVIKTSKQNGRSLKKRAQDFLLKWSFFGARVMHNLTLNNASSFGSFHLIRMLLDEYILLAMETQFNNDKEQELQNLLDKYMKNSDASKAAFTASPSSCFLANRNKGSMVSSDAVKNESHVETTYLPLPSSQPGGLGPALHQFPAGNTDNMPLTGQMELSQIAGHLMTPPISPAMASRGSVINQGPMAGRPPSVGPVLSAPSHCSTYPEPIYPTLPQANHDFYSTSSNYQTVFRAQPHSTSGLYPHHTEHGRCMAWTEQQLSRDFFSGSCAGSPYNSRPPSSYGPSLQAQDSHNMQFLNTGSFNFLSNTGAASCQGATLPPNSPNGYYGSNINYPESHRLGSMVNQHVSVISSIRSLPPYSDIHDPLNILDDSGRKQTSSFYTDTSSPVACRTPVLASSLQTPIPSSSSQCMYGTSNQYPAQETLDSHGTSSREMVSSLPPINTVFMGTAAGGT
  Z score of condensed fraction: 3.216

B2: RBM14 (protein, UniProt Q96PK6 1-669, looked up)
RNA-binding protein 14: MKIFVGNVDGADTTPEELAALFAPYGTVMSCAVMKQFAFVHMRENAGALRAIEALHGHELRPGRALVVEMSRPRPLNTWKIFVGNVSAACTSQELRSLFERRGRVIECDVVKDYAFVHMEKEADAKAAIAQLNGKEVKGKRINVELSTKGQKKGPGLAVQSGDKTKKPGAGDTAFPGTGGFSATFDYQQAFGNSTGGFDGQARQPTPPFFGRDRSPLRRSPPRASYVAPLTAQPATYRAQPSVSLGAAYRAQPSASLGVGYRTQPMTAQAASYRAQPSVSLGAPYRGQLASPSSQSAAASSLGPYGGAQPSASALSSYGGQAAAASSLNSYGAQGSSLASYGNQPSSYGAQAASSYGVRAAASSYNTQGAASSLGSYGAQAASYGAQSAASSLAYGAQAASYNAQPSASYNAQSAPYAAQQAASYSSQPAAYVAQPATAAAYASQPAAYAAQATTPMAGSYGAQPVVQTQLNSYGAQASMGLSGSYGAQSAAAATGSYGAAAAYGAQPSATLAAPYRTQSSASLAASYAAQQHPQAAASYRGQPGNAYDGAGQPSAAYLSMSQGAVANANSTPPPYERTRLSPPRASYDDPYKKAVAMSKRYGSDRRLAELSDYRRLSESQLSFRRSPTKSSLDYRRLPDAHSDYARYSGSYNDYLRAAQMHSGYQRRM
  Z score of condensed fraction: 0.5955

B3: RFX1 (protein, UniProt P22670 1-979, looked up)
MHC class II regulatory …: MATQAYTELQAAPPPSQPPQAPPQAQPQPPPPPPPAAPQPPQPPTAAATPQPQYVTELQSPQPQAQPPGGQKQYVTELPAVPAPSQPTGAPTPSPAPQQYIVVTVSEGAMRASETVSEASPGSTASQTGVPTQVVQQVQGTQQRLLVQTSVQAKPGHVSPLQLTNIQVPQQALPTQRLVVQSAAPGSKGGQVSLTVHGTQQVHSPPEQSPVQANSSSSKTAGAPTGTVPQQLQVHGVQQSVPVTQERSVVQATPQAPKPGPVQPLTVQGLQPVHVAQEVQQLQQVPVPHVYSSQVQYVEGGDASYTASAIRSSTYSYPETPLYTQTASTSYYEAAGTATQVSTPATSQAVASSGSMPMYVSGSQVVASSTSTGAGASNSSGGGGSGGGGGGGGGGGGGGSGSTGGGGSGAGTYVIQGGYMLGSASQSYSHTTRASPATVQWLLDNYETAEGVSLPRSTLYCHYLLHCQEQKLEPVNAASFGKLIRSVFMGLRTRRLGTRGNSKYHYYGLRIKASSPLLRLMEDQQHMAMRGQPFSQKQRLKPIQKMEGMTNGVAVGQQPSTGLSDISAQVQQYQQFLDASRSLPDFTELDLQGKVLPEGVGPGDIKAFQVLYREHCEAIVDVMVNLQFTLVETLWKTFWRYNLSQPSEAPPLAVHDEAEKRLPKAILVLLSKFEPVLQWTKHCDNVLYQGLVEILIPDVLRPIPSALTQAIRNFAKSLESWLTHAMVNIPEEMLRVKVAAAGAFAQTLRRYTSLNHLAQAARAVLQNTAQINQMLSDLNRVDFANVQEQASWVCRCEDRVVQRLEQDFKVTLQQQNSLEQWAAWLDGVVSQVLKPYQGSAGFPKAAKLFLLKWSFYSSMVIRDLTLRSAASFGSFHLIRLLYDEYMYYLIEHRVAQAKGETPIAVMGEFANLATSLNPLDPDKDEEEEEEEESEDELPQDISLAAGGESPALGPETLEPPAKLARTDARGLFVQALPSS
  Z score of condensed fraction: -0.4637

B4: BATF2 (protein, UniProt Q8N1L9 1-274, looked up)
Basic leucine zipper …: MHLCGGNGLLTQTDPKEQQRQLKKQKNRAAAQRSRQKHTDKADALHQQHESLEKDNLALRKEIQSLQAELAWWSRTLHVHERLCPMDCASCSAPGLLGCWDQAEGLLGPGPQGQHGCREQLELFQTPGSCYPAQPLSPGPQPHDSPSLLQCPLPSLSLGPAVVAEPPVQLSPSPLLFASHTGSSLQGSSSKLSALQPSLTAQTAPPQPLELEHPTRGKLGSSPDNPSSALGLARLQSREHKPALSAATWQGLVVDPSPHPLLAFPLLSSAQVHF
  Z score of condensed fraction: -1.083

B5: RHOXF1 (protein, UniProt Q8NHV9 1-184, looked up)
Rhox homeobox family member 1: MARSLVHDTVFYCLSVYQVKISPTPQLGAASSAEGHVGQGAPGLMGNMNPEGGVNHENGMNRDGGMIPEGGGGNQEPRQQPQPPPEEPAQAAMEGPQPENMQPRTRRTKFTLLQVEELESVFRHTQYPDVPTRRELAENLGVTEDKVRVWFKNKRARCRRHQRELMLANELRADPDDCVYIVVD
  Z score of condensed fraction: -0.9364

B6: RFC1 (protein, UniProt P35251 1-1148, looked up)
Replication factor C subunit 1: MDIRKFFGVIPSGKKLVSETVKKNEKTKSDEETLKAKKGIKEIKVNSSRKEDDFKQKQPSKKKRIIYDSDSESEETLQVKNAKKPPEKLPVSSKPGKISRQDPVTYISETDEEDDFMCKKAASKSKENGRSTNSHLGTSNMKKNEENTKTKNKPLSPIKLTPTSVLDYFGTGSVQRSNKKMVASKRKELSQNTDESGLNDEAIAKQLQLDEDAELERQLHEDEEFARTLAMLDEEPKTKKARKDTEAGETFSSVQANLSKAEKHKYPHKVKTAQVSDERKSYSPRKQSKYESSKESQQHSKSSADKIGEVSSPKASSKLAIMKRKEESSYKEIEPVASKRKENAIKLKGETKTPKKTKSSPAKKESVSPEDSEKKRTNYQAYRSYLNREGPKALGSKEIPKGAENCLEGLIFVITGVLESIERDEAKSLIERYGGKVTGNVSKKTNYLVMGRDSGQSKSDKAAALGTKIIDEDGLLNLIRTMPGKKSKYEIAVETEMKKESKLERTPQKNVQGKRKISPSKKESESKKSRPTSKRDSLAKTIKKETDVFWKSLDFKEQVAEETSGDSKARNLADDSSENKVENLLWVDKYKPTSLKTIIGQQGDQSCANKLLRWLRNWQKSSSEDKKHAAKFGKFSGKDDGSSFKAALLSGPPGVGKTTTASLVCQELGYSYVELNASDTRSKSSLKAIVAESLNNTSIKGFYSNGAASSVSTKHALIMDEVDGMAGNEDRGGIQELIGLIKHTKIPIICMCNDRNHPKIRSLVHYCFDLRFQRPRVEQIKGAMMSIAFKEGLKIPPPAMNEIILGANQDIRQVLHNLSMWCARSKALTYDQAKADSHRAKKDIKMGPFDVARKVFAAGEETAHMSLVDKSDLFFHDYSIAPLFVQENYIHVKPVAAGGDMKKHLMLLSRAADSICDGDLVDSQIRSKQNWSLLPAQAIYASVLPGELMRGYMTQFPTFPSWLGKHSSTGKHDRIVQDLALHMSLRTYSSKRTVNMDYLSLLRDALVQPLTSQGVDGVQDVVALMDTYYLMKEDFENIMEISSWGGKPSPFSKLDPKVKAAFTRAYNKEAHLTPYSLQAIKASRHSTSPSLDSEYNEELNEDDSQSDEKDQDAIETDAMIKKKTKSSKPSKPEKDKEPRKGKGKSSKK
  Z score of condensed fraction: 2.906

B7: RHOXF2 (protein, UniProt Q9BQY4 1-288, looked up)
Rhox homeobox family member 2: MEPPDQCSQYMTSLLSPAVDDEKELQDMNAMVLSLTEEVKEEEEDAQPEPEQGTAAGEKLKSAGAQGGEEKDGGGEEKDGGGAGVPGHLWEGDLEGTSGSDGNVEDSDQSEKEPGQQYSRPQGAVGGLEPGNAQQPNVHAFTPLQLQELERIFQREQFPSEFLRRRLARSMNVTELAVQIWFENRRAKWRRHQRALMARNMLPFMAVGQPVMVTAAEAITAPLFISGMRDDYFWDHSHSSSLCFPMPPFPPPSLPLPLMLLPPMPPAGQAEFGPFPFVIVPSFTFPNV
  Z score of condensed fraction: 1.459

B8: REXO4 (protein, UniProt Q9GZR2 1-422, looked up)
RNA exonuclease 4: MGKAKVPASKRAPSSPVAKPGPVKTLTRKKNKKKKRFWKSKAREVSKKPASGPGAVVRPPKAPEDFSQNWKALQEWLLKQKSQAPEKPLVISQMGSKKKPKIIQQNKKETSPQVKGEEMPAGKDQEASRGSVPSGSKMDRRAPVPRTKASGTEHNKKGTKERTNGDIVPERGDIEHKKRKAKEAAPAPPTEEDIWFDDVDPADIEAAIGPEAAKIARKQLGQSEGSVSLSLVKEQAFGGLTRALALDCEMVGVGPKGEESMAARVSIVNQYGKCVYDKYVKPTEPVTDYRTAVSGIRPENLKQGEELEVVQKEVAEMLKGRILVGHALHNDLKVLFLDHPKKKIRDTQKYKPFKSQVKSGRPSLRLLSEKILGLQVQQAEHCSIQDAQAAMRLYVMVKKEWESMARDRRPLLTAPDHCSDDA
  Z score of condensed fraction: -0.3654

B9: RFX4 (protein, UniProt Q33E94 1-735, looked up)
Transcription factor RFX4: MHCGLLEEPDMDSTESWIERCLNESENKRYSSHTSLGNVSNDENEEKENNRASKPHSTPATLQWLEENYEIAEGVCIPRSALYMHYLDFCEKNDTQPVNAASFGKIIRQQFPQLTTRRLGTRGQSKYHYYGIAVKESSQYYDVMYSKKGAAWVSETGKKEVSKQTVAYSPRSKLGTLLPEFPNVKDLNLPASLPEEKVSTFIMMYRTHCQRILDTVIRANFDEVQSFLLHFWQGMPPHMLPVLGSSTVVNIVGVCDSILYKAISGVLMPTVLQALPDSLTQVIRKFAKQLDEWLKVALHDLPENLRNIKFELSRRFSQILRRQTSLNHLCQASRTVIHSADITFQMLEDWRNVDLNSITKQTLYTMEDSRDEHRKLITQLYQEFDHLLEEQSPIESYIEWLDTMVDRCVVKVAAKRQGSLKKVAQQFLLMWSCFGTRVIRDMTLHSAPSFGSFHLIHLMFDDYVLYLLESLHCQERANELMRAMKGEGSTAEVREEIILTEAAAPTPSPVPSFSPAKSATSVEVPPPSSPVSNPSPEYTGLSTTGAMQSYTWSLTYTVTTAAGSPAENSQQLPCMRNTHVPSSSVTHRIPVYPHREEHGYTGSYNYGSYGNQHPHPMQSQYPALPHDTAISGPLHYAPYHRSSAQYPFNSPTSRMEPCLMSSTPRLHPTPVTPRWPEVPSANTCYTSPSVHSARYGNSSDMYTPLTTRRNSEYEHMQHFPGFAYINGEASTGWAK
  Z score of condensed fraction: -0.3239
